Assay results from paper PMC2939310 (Biochemistry, 2010).

Biological target: the molecule itself
Experiment: SEC

B1: DesVII-C-His6/DesVIII-N-Stag heterodimer (complex, Streptomyces venezuelae)
chain 1: MRVLLTSFAHHTHYYGLVPLAWALLAAGHEVRVASQPALTDTITGSGLAAVPVGTDHLIHEYRVRMAGEPRPNHPAIAFDEARPEPLDWDHALGIEAILAPYFYLLANNDSMVDDLVDFARSWQPDLVLWEPTTYAGAVAAQVTGAAHARVLWGPDVMGSARRKFVALRDRQPPEHREDPTAEWLTWTLDRYGASFEEELLTGQFTIDPTPPSLRLDTGLPTVGMRYVPYNGTSVVPDWLSEPPARPRVCLTLGVSAREVLGGDGVSQGDILEALADLDIELVATLDASQRAEIRNYPKHTRFTDFVPMHALLPSCSAIIHHGGAGTYATAVINAVPQVMLAELWDAPVKARAVAEQGAGFFLPPAELTPQAVRDAVVRILDDPSVATAAHRLREETFGDPTPAGIVPELERLAAQHRRPPADARH
chain 2: MTDDLTGALTQPPLGRTVRAVADRELGTHLLETRGIHWIHAANGDPYATVLRGQADDPYPAYERVRARGALSFSPTGSWVTADHALAASILCSTDFGVSGADGVPVPQQVLSYGEGCPLEREQVLPAAGDVPEGGQRAVVEGIHRETLEGLAPDPSASYAFELLGGFVRPAVTAAAAAVLGVPADRRADFADLLERLRPLSDSLLAPQSLRTVRAADGALAELTALLADSDDSPGALLSALGVTAAVQLTGNAVLALLAHPEQWRELCDRPGLAAAAVEETLRYDPPVQLDARVVRGETELAGRRLPAGAHVVVLTAATGRDPEVFTDPERFDLARPDAAAHLALHPAGPYGPVASLVRLQAEVALRTLAGRFPGLRQAGDVLRPRRAPVGRGPLSVPVSSS
In the case of B1, the “stoichiometry N” value is reported as 3 heterodimers in the complex.
